B1: Pistol ribozyme (parent)
chain: GGGUCGUUGUUCCAUAAUCGCGUGGAUAUGGCACGCAAGUUUCUACCGGGCACCGUAAAUGUCCGACUGGAGCCGUUCGGGCGGCUAUAAACAGACCUCAGGCCCGAAGCGUGGCGGCACCUGCCGCCGGUGGUAAAAAAGAUCGGAAGAGCACACGUCU

Variants of: B1
Experiment: aptazyme ON/OFF ratio, guanine; higher = stronger switching; co-transcriptional cleavage with and without guanine
For U7C U8A U10G U11A C12G C13G, the “aptazyme ON/OFF ratio” value was 1.18. With U7C G9A U11C C13A the “aptazyme ON/OFF ratio” value was 1.07. With U7A U8C G9C U11C C13G the “aptazyme ON/OFF ratio” value was 1.04. In the case of U7C U8A G9A U10A U11A C12U C13A, the “aptazyme ON/OFF ratio” value is reported as 1.2. With U8A G9U U10A U11G C12U C13U the “aptazyme ON/OFF ratio” value was 1.4. In the case of G9U U10G U11G C13G, the “aptazyme ON/OFF ratio” value is reported as 1.19. In the case of U7C U8G G9A U10A U11G C13G, the “aptazyme ON/OFF ratio” value is reported as 1.02. For U7C U8C U10A U11G C12G C13U, the “aptazyme ON/OFF ratio” value was 1.14. For U7A U10G U11G C12G C13G, the “aptazyme ON/OFF ratio” value was 1.28. With U8C G9C U10G C12U the “aptazyme ON/OFF ratio” value was 1.12. For U7C U8G U10G C12U C13G, the “aptazyme ON/OFF ratio” value was 1.23. With U7C G9A U10G C12A C13G the “aptazyme ON/OFF ratio” value was 1.08. With U7C U8A G9U U10G U11G C12G C13G the “aptazyme ON/OFF ratio” value was 1.14. In the case of U7C G9A U10C U11G C13U, the “aptazyme ON/OFF ratio” value is reported as 1.45. For U7A U8G G9U U10C C12G C13U, the “aptazyme ON/OFF ratio” value was 1.68. In the case of U7A U8A G9U U11C C12U C13A, the “aptazyme ON/OFF ratio” value is reported as 1.18. For G9U U10G U11G C12U C13U, the “aptazyme ON/OFF ratio” value was 1.34. With U8G U10G U11A C13G the “aptazyme ON/OFF ratio” value was 1.18. For U8G U10C C12G C13U, the “aptazyme ON/OFF ratio” value was 1.27. For U7A U8A G9A C12G C13U, the “aptazyme ON/OFF ratio” value was 1.14. For U8G G9U U10G U11A C12A C13U, the “aptazyme ON/OFF ratio” value was 1.03. For U8A C13U, the “aptazyme ON/OFF ratio” value was 1.43. For U8C G9A U10G C12U C13G, the “aptazyme ON/OFF ratio” value was 1.2. With U8C G9A U10A U11A C12G the “aptazyme ON/OFF ratio” value was 1.32. With U7G U8A U10A U11G the “aptazyme ON/OFF ratio” value was 2.46. For U7C U8C G9A U10A U11A C12A C13U, the “aptazyme ON/OFF ratio” value was 1.19. In the case of U7G G9A U11A C13A, the “aptazyme ON/OFF ratio” value is reported as 1.14. For U7A U8C G9C U10G U11A C13U, the “aptazyme ON/OFF ratio” value was 1.02. With U7G U8C G9C U10C C12G C13U the “aptazyme ON/OFF ratio” value was 1.08. In the case of U7G G9U U10C U11C C12U, the “aptazyme ON/OFF ratio” value is reported as 1.41. For U7C U8G U10C C12G C13A, the “aptazyme ON/OFF ratio” value was 1.11. For U7G G9U U10C C13G, the “aptazyme ON/OFF ratio” value was 1.1. With U7G U8A G9U C12A C13G the “aptazyme ON/OFF ratio” value was 1.05. With U7G U8A G9U U10A C12U C13G the “aptazyme ON/OFF ratio” value was 1.06. With U7C G9A U10A C12A C13A the “aptazyme ON/OFF ratio” value was 1.17. With U7G G9A U10A U11C C13G the “aptazyme ON/OFF ratio” value was 1.08. In the case of U7C U8A U10C U11C C12G C13U, the “aptazyme ON/OFF ratio” value is reported as 1.09. In the case of U7C U8G G9U U11C C13U, the “aptazyme ON/OFF ratio” value is reported as 1.09. For U7A U8A G9U U11A C12A, the “aptazyme ON/OFF ratio” value was 1.25. For U7C U8G U10C U11A C12A C13A, the “aptazyme ON/OFF ratio” value was 1.19. For U7G U8A G9U U11A C12A C13G, the “aptazyme ON/OFF ratio” value was 1.11. In the case of U7G U11A C12U, the “aptazyme ON/OFF ratio” value is reported as 1.68. For U8C G9A U10C U11G C12U C13U, the “aptazyme ON/OFF ratio” value was 1.51. In the case of U7C U8A G9C U11G C12U C13U, the “aptazyme ON/OFF ratio” value is reported as 1.13. For U8C G9U U11A C12U C13G, the “aptazyme ON/OFF ratio” value was 1.12. For U7G U8G G9A U10A U11G C12A, the “aptazyme ON/OFF ratio” value was 1.07. With U7A U10G U11C C13G the “aptazyme ON/OFF ratio” value was 1.08. In the case of U8G G9C U10G U11C C12U C13U, the “aptazyme ON/OFF ratio” value is reported as 1.03. In the case of U7A G9A U10C U11A C12G C13G, the “aptazyme ON/OFF ratio” value is reported as 1.32. For U8A G9A U10A C12G C13A, the “aptazyme ON/OFF ratio” value was 1.25. With U7C U8C G9C U10C U11A C12U C13A the “aptazyme ON/OFF ratio” value was 1.08. In the case of U7C U8A G9U U11G C12A, the “aptazyme ON/OFF ratio” value is reported as 1.09. For U7A U8C G9U U10C C13A, the “aptazyme ON/OFF ratio” value was 1.09. With U10C U11G C13G the “aptazyme ON/OFF ratio” value was 1.22. In the case of U7C U8A G9U C12A C13U, the “aptazyme ON/OFF ratio” value is reported as 1.15. In the case of U7G U8G G9A U10C U11C C12G, the “aptazyme ON/OFF ratio” value is reported as 1.21. In the case of U8C G9A U10C U11G C12U C13G, the “aptazyme ON/OFF ratio” value is reported as 1.15. For U7A U8G G9A U10C C12A C13G, the “aptazyme ON/OFF ratio” value was 1.14. With U7C G9U U11C C13G the “aptazyme ON/OFF ratio” value was 1.02. For G9C U10A U11G C12A C13A, the “aptazyme ON/OFF ratio” value was 1.06. In the case of U7G G9A U10G U11C, the “aptazyme ON/OFF ratio” value is reported as 1.04. In the case of G9C U10A U11G C12A C13U, the “aptazyme ON/OFF ratio” value is reported as 1.17. With U7C U8A G9A U11A C13A the “aptazyme ON/OFF ratio” value was 1.17. With U7G U11A C13A the “aptazyme ON/OFF ratio” value was 1.16. With U8A G9U U11A C12G the “aptazyme ON/OFF ratio” value was 1.09. For U7A U8C U10C C12U C13U, the “aptazyme ON/OFF ratio” value was 1.38. In the case of U7C U11A C12G C13U, the “aptazyme ON/OFF ratio” value is reported as 1.07. With U8C U10A U11A the “aptazyme ON/OFF ratio” value was 1.18. For U7A U8C U10G U11C C13A, the “aptazyme ON/OFF ratio” value was 1.18. With G9A U10C U11G C12A the “aptazyme ON/OFF ratio” value was 1.03. In the case of U7C U8C G9A U10G U11G C13G, the “aptazyme ON/OFF ratio” value is reported as 1.23. For U7A U8G G9U U10A U11C C12G C13A, the “aptazyme ON/OFF ratio” value was 1.14. In the case of U7A U8G G9C U11G C12U C13U, the “aptazyme ON/OFF ratio” value is reported as 1.4. In the case of G9A U10G U11A C12G C13A, the “aptazyme ON/OFF ratio” value is reported as 1.02. For U7C U8A G9C U10C C12G, the “aptazyme ON/OFF ratio” value was 1.03. In the case of U7C U8C G9U U10G C12A C13G, the “aptazyme ON/OFF ratio” value is reported as 1.1. For U7C U8C G9U U10C U11G C12U, the “aptazyme ON/OFF ratio” value was 1.22. For U7C U8C G9C U10C U11G C12G C13U, the “aptazyme ON/OFF ratio” value was 1.11. In the case of U7G U8C G9U U10G U11A C12A C13A, the “aptazyme ON/OFF ratio” value is reported as 1.12. For U7C U8C U10A U11C C12U C13G, the “aptazyme ON/OFF ratio” value was 1.1. With U7A U8C G9C U10C U11C C13G the “aptazyme ON/OFF ratio” value was 1.05. For U7C G9A U10C U11C C12A C13U, the “aptazyme ON/OFF ratio” value was 1.16. In the case of U7A U8A G9U U10A U11C, the “aptazyme ON/OFF ratio” value is reported as 1.08. For U8A G9C U10A U11C C12G, the “aptazyme ON/OFF ratio” value was 1.1.
